Test results reported in patent publication US20210340273A1 (INHLBRX, published 2021).
Numbering of substitutions follows the chain as printed.

T1: human 5T4 (trophoblast glycoprotein), endogenous on the cell surface (human, UniProt Q13641 32-420)
T1 construct: also called TPBG; 5T4 oncofetal antigen
T1 sequence: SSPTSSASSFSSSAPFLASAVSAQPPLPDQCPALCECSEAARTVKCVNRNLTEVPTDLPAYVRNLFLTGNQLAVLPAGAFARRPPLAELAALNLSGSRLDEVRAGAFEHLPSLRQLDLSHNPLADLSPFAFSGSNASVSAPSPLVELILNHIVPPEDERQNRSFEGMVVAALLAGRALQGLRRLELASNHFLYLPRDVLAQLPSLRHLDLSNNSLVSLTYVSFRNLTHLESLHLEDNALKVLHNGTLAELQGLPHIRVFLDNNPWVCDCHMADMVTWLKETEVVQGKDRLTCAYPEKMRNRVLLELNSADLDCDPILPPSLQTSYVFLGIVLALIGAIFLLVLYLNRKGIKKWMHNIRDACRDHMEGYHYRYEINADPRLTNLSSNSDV

B1: hz16G10v10 sdAb-Fc (Fc fusion)
chain: EVQLVESGGGEVQPGGSLRLSCAASGRPFSSSAMGWFRQAPGKERETVAAVSRNAGSSYYADFVKGRFTISRDNAKNTVYLQMSSLRAEDTAVYYCAARSAAYSRSSETYTEKHDYTYWGQGTLVTVKP
notes: Humanized variant of 16G10, linked to a human Fc; not shown: human Fc
B2: hz16G10v7 sdAb-Fc (Fc fusion)
chain: B1 chain with A55T, D62E, F63S
notes: as for B1
B3: hz14B5v20 sdAb-Fc (Fc fusion)
chain: EVQLVESGGGEVQPGGSLRLSCAASGRPFSSYAMGWFRQAPGKERDLVAAVSRNAGASYYAESVKGRFTISRDNAKNTVYLQMSSLRAEDTAVYYCAARSAAYSRSSEVYTGKDEYYYWGQGTLVTVKP
notes: Humanized variant of 14B5, linked to a human Fc; not shown: human Fc
B4: hz14B5v19 sdAb-Fc (Fc fusion)
chain: B3 chain with S30G, S31T
notes: as for B3
B5: hz14B5v2 sdAb-Fc (Fc fusion)
chain: B3 chain with G26E, S30G, S31T, A55G, Y59Q, V79L
notes: as for B3
B6: hz14B5v18 sdAb-Fc (Fc fusion)
chain: B3 chain with G26E
notes: as for B3
B7: hz16G10v1 sdAb-Fc (Fc fusion)
chain: B1 chain with E44G, A49S, A55G, D62E, F63S, V79L
notes: as for B1
B8: hz16G10v2 sdAb-Fc (Fc fusion)
chain: B1 chain with A55G, D62E, F63S, V79L
notes: as for B1
B9: hz16G10v5 sdAb-Fc (Fc fusion)
chain: B1 chain with N54G, A55G, D62E, F63S
notes: as for B1
B10: hz16G10v8 sdAb-Fc (Fc fusion)
chain: B1 chain with A55G
notes: as for B1
B11: hz16G10v3 sdAb-Fc (Fc fusion)
chain: B1 chain with A55G, D62E, F63S
notes: as for B1
B12: hz16G10v6 sdAb-Fc (Fc fusion)
chain: B1 chain with D62E, F63S
notes: as for B1
B13: hz16G10v4 sdAb-Fc (Fc fusion)
chain: B1 chain with N54Q, A55G, D62E, F63S
notes: as for B1
B14: hz16G10v9 sdAb-Fc (Fc fusion)
chain: B1 chain with A55G, D62E, F63S, A75D
notes: as for B1
B15: 16G10 sdAb-Fc (Fc fusion, not shown: a dimerising Fc or GST)
chain: QVQLLQSGGGLVQAGGSLILSCAVSGRPFSSSAMGWFRQAPGKERETVAAVSRNGGSSYYADFVKGRFTISRDNDKNTVYLQMNSLKPEDTAVYYCAARSAAYSRSSETYTEKHDYTYWGQGTQVTVKP
notes: Camelid derived sdAb tested as sdAb-Fc; also called L16G10
B16: hz12E9v4 sdAb-Fc (Fc fusion)
chain: EVQLVESGGGEVQPGGSLRLSCAASRRPFSSKTMAWFRQAPGKEREFVAAVRWIGGATRYTESVKGRFTISRDNAKNTVYLQMSSLRAEDTAVYYCAAGQAWGTKFTDYSDWGQGTLVTVKP
notes: Humanized variant of 12E9, linked to a human Fc; not shown: human Fc
B17: hz12E9v6 sdAb-Fc (Fc fusion)
chain: B16 chain with P14A, A40T, T61A
notes: as for B16
B18: hz12E9v2 sdAb-Fc (Fc fusion)
chain: B16 chain with T61A, V79L
notes: as for B16
B19: hz12E9v3 sdAb-Fc (Fc fusion)
chain: B16 chain with T61A
notes: as for B16
B20: hz12E9v1 sdAb-Fc (Fc fusion)
chain: B16 chain with E44G, T61A, V79L
notes: as for B16
B21: hz14B5v4 sdAb-Fc (Fc fusion)
chain: B3 chain with G26E, S30G, S31T, A55G, Y59Q
notes: as for B3
B22: hz14B5v1 sdAb-Fc (Fc fusion)
chain: B3 chain with G26E, S30G, S31T, E44G, A49S, A55G, Y59Q, V79L
notes: as for B3
B23: hz14B5v3 sdAb-Fc (Fc fusion)
chain: B3 chain with G26E, S30G, S31T, A55G, Y59Q, V79M
notes: as for B3
B24: hz14B5v9 sdAb-Fc (Fc fusion)
chain: B3 chain with G26E, S30G, S31T, A55G, Y59Q, A61G, E62D, V79M
notes: as for B3
B25: hz14B5v10 sdAb-Fc (Fc fusion)
chain: B3 chain with G26E, S30G, S31T, A55G, Y59Q, A61G, V79M
notes: Humanized variant of 14B5, linked to a human Fc; also called hz14B510; not shown: human Fc
B26: hz14B5v6 sdAb-Fc (Fc fusion)
chain: B3 chain with G26E, S30G, S31T, A55T, Y59Q, V79M
notes: as for B3
B27: hz14B5v7 sdAb-Fc (Fc fusion)
chain: B3 chain with G26E, S30G, S31T, N54Q, A55G, Y59Q, V79M
notes: as for B3
B28: hz14B5v5 sdAb-Fc (Fc fusion)
chain: B3 chain with G26E, S30G, S31T, Y59Q, V79M
notes: as for B3
B29: hz14B5v8 sdAb-Fc (Fc fusion)
chain: B3 chain with G26E, S30G, S31T, N54G, A55G, Y59Q, V79M
notes: as for B3
B30: hz14B5v13 sdAb-Fc (Fc fusion)
chain: B3 chain with G26E, S30G, S31T, D46E, L47T, Y59Q, V79M
notes: as for B3
B31: hz14B5v11 sdAb-Fc (Fc fusion)
chain: B3 chain with P14A, G16D, R19T, A24V, G26E, S30G, S31T, K43R, Y59Q, V79M
notes: Humanized variant of 14B5, linked to a human Fc; also called hz14B511; not shown: human Fc
B32: hz14B5v15 sdAb-Fc (Fc fusion)
chain: B3 chain with G26E, S30G, S31T, V79M
notes: as for B3
B33: hz14B5v12 sdAb-Fc (Fc fusion)
chain: B3 chain with G26E, S30G, S31T, Y59Q, A61G, T69S, A75I, V79M, R87K, A88P
notes: as for B3
B34: hz14B5v16 sdAb-Fc (Fc fusion)
chain: B3 chain with G26E, S30G, S31T, Y59Q, A61G, S63F, V79M
notes: as for B3
B35: hz14B5v14 sdAb-Fc (Fc fusion)
chain: B3 chain with G26E, S30G, S31T, D46E, L47F, Y59Q, V79M
notes: as for B3
B36: 14F4 sdAb-Fc (Fc fusion, not shown: a dimerising Fc or GST)
chain: QVQLQESGGGLMQAGDSLRLSCVVSGVTWNSYTMAWFRQAPGKEREFVAAIRWTVDTTYYADFVKGRFTISRDYAKKTMYLQMNNLKPEDAAVYYCAVGRKWPKADDYWGQGTLVTVKP
notes: Camelid derived sdAb tested as sdAb-Fc
B37: 4D3 sdAb-Fc (Fc fusion, not shown: a dimerising Fc or GST)
chain: QVQLQESGGGLVQAGGSLRLSCAASRRPFSSKTMAWFRQTPGKEREFVAAVRWIGGATRYTDSVKGRFSISKDNAINTVYLQTNSLKSEDTAVYYCAAGQTWGTKFTDYSDWGQGTLVTVKP
notes: as for B36
B38: 7E1 sdAb-Fc (Fc fusion, not shown: a dimerising Fc or GST)
chain: QVQLVQSGGGLVQAGASLRLSCVASGRTRSLRTMAWFRQAPGKERIFVAAISWRSDSTYYADSVKGRFTISRDNAKNTAYLQMNTLKPEDTAVYYCAAGGGWLATTPDEYTYWGQGTLVTVKP
notes: as for B36

biological target: T1, human 5T4 (trophoblast glycoprotein), …; test: flow cytometry, sdAb-Fc on 5T4 expressing T47D cells

Binder | binding result
B1 | binds
B2 | binds
B3 | binds
B4 | binds
B5 | binds
B6 | binds

biological target: T1, human 5T4 (trophoblast glycoprotein), …; test: flow cytometry (FL4H median), sdAb-Fc titrated on 5T4-positive T47D cells
Method: (§1) Specificity and relative affinity were assessed for purified sdAb-Fcs on 5T4-expressing cells. Binding of 5T4-sdAb-Fc fusion proteins was assessed by flow cytometry using 5T4-expressing cells. A titration series of the fusion protein was incubated with the 5T4-expressing cell lines (approximately 2.5×10⁴ to 5×10⁴ cells/well) for 30 minutes at 4 degrees Celsius in FACS Buffer (PBS 1% BSA, 0.1% NaN₃ pH 7.4) in 96 well plates. Following three wash steps in FACS buffer, an APC-conjugated anti-human Fcγ specific secondary antibody (Jackson ImmunoResearch) was added and incubated for 30 minutes at 4 degrees Celsius. Following three additional wash steps in FACS buffer bound antibody was detected via flow cytometry (IQue Intellicyte).
(§2) Humanized variant of the 5T4 sdAbs were tested for their ability to bind 5T4 expressing cells substantially as described in Example 2, and binding was compared to the parental sdAb. 5T4 expressing T47D cells were used in these studies. Results are shown in FIGS. 2A-2F, which confirm binding of the humanized variants. In some cases, binding was increased compared to the parental sdAb.

Binder | EC50 (read off the curve) [nM] | binding result
B7 | ~2 | 
B8 | ~2 | 
B9 | ~5 | 
B10 |  | binds
B11 | ~2 | 
B12 |  | binds
B13 | ~9 | 
B14 |  | binds
B15 | ~0.9 | 
B16 | ~0.2 | 
B17 |  | binds
B18 | ~0.2 | 
B19 | ~0.2 | 
B20 |  | binds
B21 |  | binds
B22 |  | binds
B23 |  | binds
B24 |  | binds
B25 |  | binds
B26 |  | binds
B27 | ~2 | 
B28 |  | binds
B29 | ~2 | 

biological target: T1, human 5T4 (trophoblast glycoprotein), …; test: as above; remark: another data set of the same source
Method: as §1, §2

Binder | EC50 (read off the curve) [nM]
B30 | ~2
B31 | ~2
B32 | ~2
B33 | ~2
B34 | ~2
B35 | ~2

biological target: T1, human 5T4 (trophoblast glycoprotein), …; test: flow cytometry (FL4), sdAb-Fc titrated on HEK-293 freestyle (293FS) cells endogenously expressing 5T4
Method: FIGS. 1A-B depict the ability of various single domain antibodies targeting 5T4 to bind cell surface 5T4. Binding was assessed by flow cytometry on HEK-293 freestyle cells endogenously expressing 5T4.
as §1

Binder | EC50 (read off the curve) [nM]
B36 | ~1
B15 | ~1
B37 | ~0.2
B38 | ~0.2
